Data on two molecules can be found in paper PMC4324353 (2014).

In this experiment the target is actin (Oryctolagus cuniculus, UniProt P68135).

B1: Spire Sc3d WH2 c-Linker 3-WH2 d (second actin at Sc) (protein)
chain: KKDAHAMILEFIRSRPPLKKASDRQLGPPRMCEPSPREQLMESIRKGKELKQITPPEA
B1: the Kd is 10 nM.

B2: Spire Sc3d WH2 c-Linker 3-WH2 d (second actin at Sd) (protein)
chain: KKDAHAMILEFIRSRPPLKKASDRQLGPPRMCEPSPREQLMESIRKGKELKQITPPEA
B2 registered a dissociation constant Kd of 30 nM.

By Kd is commonly meant the constant that tells how readily two partners part at equilibrium. Low values mean tighter binding, high ones weaker binding.
